Source: patent US20210163601A1 (Amgen, published 2021)
Where a chain is given by its changes, count along the chain named. Values belong to the binder of their own block, whether it stands above or below them.

Biological target: T1, Soluble ASGR-1 (recombinant, biotinylated) (human, UniProt P07306 62-291, limits assumed, biotinylated)
T1 construct: also called recombinant, soluble ASGR-1 biotinylated protein
T1 sequence: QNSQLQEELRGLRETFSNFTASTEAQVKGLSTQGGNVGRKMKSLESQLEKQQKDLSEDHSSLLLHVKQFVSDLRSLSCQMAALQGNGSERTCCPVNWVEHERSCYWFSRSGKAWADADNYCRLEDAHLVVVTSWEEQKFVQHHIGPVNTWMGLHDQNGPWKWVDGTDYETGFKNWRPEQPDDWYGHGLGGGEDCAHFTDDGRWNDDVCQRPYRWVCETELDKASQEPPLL
Experiment: limiting antigen bead FACS; biotinylated soluble ASGR-1 coated at 2.5 ng/mL on LumAvidin beads;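 further: hybridoma supernatants of ligand-competing antibodies bound to antigen-loaded beads, read by flow cytometry on an iQue Screener in calcium-containing buffer, higher fluorescence meaning stronger relative affinity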

FACS Geomean: 38900
B1: 194A4 (antibody, V domains shown)
VH: QVQLVQSGTEVKKPGASLKVSCKASGYTFTVYYLNWVRQAPGQGLEWMGWINPNSGGTNYAQKFQGRVTMTRDTSISTAYMELSRLRSDDTAVYYCARGYDILTGWGQGTLVTVSS
VL: EIVLTQSPGTLSLSPGERATLSCRASRGVSNIYLAWYQQKPGQAPRLLIYGASNRATGIPDRFSGSGSGTDFTLTISRLEPEDFAVYYCQHNDYSMFTFGPGTKVDIK
notes: Tested as hybridoma supernatant

FACS Geomean: 6800
B2: 7G4 (antibody, V domains shown)
VH: QVQLVESGGGVVQPGRSLRLSCAASGFTFNNYVMHWVRQAPGKGLEWVAVIWYDGSNKYYADSVKGRFTISRDNSKNTLYLQMTSLRAEDTAVYYCAREKYSSNWYDYGMDVWGQGTTVTVSS
VL: DIQMTQSPSSLSASVGDRVTITCRASQGIRNDLGWYQQRPGKAPKRLIYAASSLQSGVPSRFSGSGSGTEFTLTISSLQPEDSATYYCLHQYSYPRTFGQGTKVEIK
notes: as for B1

FACS Geomean: 3280
B3: 5E5 (antibody, V domains shown)
VH: B2 VH with N30S, T84N, A97T, K100V, N104G
VL: B2 VL with R39K, S83F, H90Q, Q91H, I106V
notes: as for B1

FACS Geomean: 18000
B4: 25A4 (antibody, V domains shown)
VH: QVLLVQSGAEVKRPGASVKVSCKASGYTFTNYDINWVRQATGQGLEWMGWMYPNSGNTGYAQKFQGRVTMTRNTSISTAYMELSSLRSEDTAVYYCASSSGWYYFDYWGQGTLVTVSS
VL: DIVMTQFPDSLAVSLGERATIKCKSSQSVLYSSHNNNYLAWYQQKPGQPPKLLLYWASTRESGVPDRFSGSGSGTEFTLTISSLEAEDVAVYYCQQYYSTPPTFGQGTKVEIK
notes: as for B1

FACS Geomean: 16600
B5: 4A2 (antibody, V domains shown)
VH: B4 VH with L3Q, A9T, R13K, Y52H, M70L
VL: DIVMTQSPDSLAVSLGERATINCKSSQSILHSSNNNNYLAWFQQKPGQPPKLLLYWASTRESGVPDRFSGSGSGTDFTLTISSLQPEDVAVYYCQQYYNTPVTFGPGTKVGIK
notes: as for B1

FACS Geomean: 12000
B6: 26C4 (antibody, V domains shown)
VH: B4 VH with L3Q, R13K, T41S, Y52N, K63R, S77N
VL: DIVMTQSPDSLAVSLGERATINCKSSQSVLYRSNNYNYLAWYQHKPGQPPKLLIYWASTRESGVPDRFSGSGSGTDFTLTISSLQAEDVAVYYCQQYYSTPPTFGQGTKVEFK
notes: as for B1

FACS Geomean: 12200
B7: 29H8 (antibody, V domains shown)
VH: B4 VH with L3Q, K12Q, R13K, Y52N, K63R, T78A
VL: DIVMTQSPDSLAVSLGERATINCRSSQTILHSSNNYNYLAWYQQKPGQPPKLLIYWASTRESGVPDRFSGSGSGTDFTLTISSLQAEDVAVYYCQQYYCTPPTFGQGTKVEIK
notes: as for B1

FACS Geomean: 10100
B8: 4B1 (antibody, V domains shown)
VH: QVQLQESGPGLVKPSETLSLTCSVSGDSISSYSWSWIRQPAGKGLEWIGRIYTSGSTNYIPSLKSRITMSVDTSKKQFSLKLSSVTAADTAVYYCARDLKSSGCLFFDYWGQGTLVTVSS
VL: DIQMTQSPSSLSASVGDRVTITCRASHTIRTYLNWYQQKPGKAPKLLIYAASSLQSGVPSRINGSGSGTDFTLTITNLQPEDFATYYCQQSYNISFTFGPGTKVDIK
notes: as for B1

FACS Geomean: 1080
B9: 22G5 (antibody, V domains shown)
VH: EVQLLESGGGLVQPGGSLRLSCAASGFTFSSYAMNWVRQAPGMGLEWVSVISRSGGYTYYADSVKGRFTISRDNSKNTLYLQMNSLRAEDTAVYYCASRLAVAGSEAFDIWGQGTLVTVSS
VL: DIQMTQSPSSLSASVGDRVTITCRASQNISSYLNWYQQKQGKAPKLLIYAASSLQNGVPSRFSGRGSGTDFTLTISSLQPEDFATYYCQQSYRTPLFTFGPGTKVDFK
notes: as for B1

FACS Geomean: 40200
B10: 184E7 (antibody, V domains shown)
VH: QVQLVQSGAEVKTPGASVKVSCRASGYTFTSYNMHWVRQVPGQGLEWMGWINPNNGGSNYTQKFQGRVTMTRDTSISTAYMELSRLRSDDTAVYYCARKFGDWGQGTLVTVSS
VL: DIQMTQSPSSRSASIGERVTITCRASQGISNYLAWIQQKPGTAPKSLIYAASSLQSGVSSRFSGSGFGTDFTITISSVQREDFATYYCQQYNGYPFTFGHGTKVDIK
notes: as for B1

FACS Geomean: 27000
B11: 48B12 (antibody, V domains shown)
VH: EVQLLESGGGLVQPGGSLRLSCAASGFTFSSYAMNWVRQAPGKGLEWVSAISGRGGNTFYADSVKGRFTISRDNSKNTLYLQMNSLRAEDTAVYYCAKRETYNWNYEGFDYWGQGTLVTVSS
VL: SYELTQPPSVSVSPGQTARITCSGDALPKKYAYWYQQKSGQAPVLVIYEDSKRPSGIPERFSGSSSGTMATLTISGAQVEDEADYYCNSTDSSGNHVVFGGGTKLTVL
notes: as for B1

FACS Geomean: 35800
B12: 75G3 (antibody, V domains shown)
VH: QVQLQQWGAGLLKPSETLSLTCAVYGGSLSGSYWSWIRQPPGKGLEWIGEINLSGSTNYNPSLKSRVTISVDTSKSQFSLTLRSVTAADTAVYYCARDYGGLDYWGQGTLVTVSS
VL: EIVLTQSPGTLSLSPGERATLSCRARQNVDSSYLAWYQQKPGQAPRLLIYGASSRATGIPDRFSGSGSGTDFTLTISRLEPEDFAVFYCQQYERSPWTFGQGTKVEIK
notes: as for B1

FACS Geomean: 4660
B13: 7E11 (antibody, V domains shown)
VH: QVQLVESGGGVVQPGRSLRLSCAASGFTFSSFGMHWVRQAPGKGLEWVAIIWHDGSNKYYADSVKGRFTISRDNSNNTLYLQMSSLRAEDTAVYYCARDLSMGGMDVWGQGTTVTVSS
VL: DIQMTQSPSSLSASVGDRVTIACRASQNIISYLNWYQQKPGKAPKFLIYTASSLQSGVPSRFSGSGSGTDFTLTISSLQPEDFAIYYCQQTYSTPLTFGGGTKVEIK
notes: as for B1

FACS Geomean: 16900
B14: 194C1 (antibody, V domains shown)
VH: QVQLVESGGGVVQPGRSLRLSCAASGFTFSSYGMHWVRQAPGKGLEWVAVIWYDGSNEHYADSVKGRFTISRDNSKNTLYLQMNSLRAEDTAVYYCARNRGVGYYGLDVWGQGTTVTVSS
VL: DIQMTQSPSSLSASVGDRVTITCRASQGISNYLAWFQQKPGKAPKSLIYAASSLQSGVPSKFSGSGSGTDFTLTISSLQPEDFATYYCLHYLTYPLTFGGGTKVEIK
notes: as for B1

FACS Geomean: 17700
B15: 197G3 (antibody, V domains shown)
VH: B14 VH with A23V, Y32H, E58K, H59N, N99D, R100P, G101S, Y105D, L107M
VL: DIQMTQSPSSLSASVGDRVTITCRASQGIGNHLAWFQQKPGKAPKSLIYAASSLQSGVPSKFSGSRSGTDFSLTISSLQPEDFATYYCQQYSNYPVTFGPGTKVDIK
notes: as for B1

FACS Geomean: 13900
B16: 190F8 (antibody, V domains shown)
VH: B14 VH with S31T, E58K, H59N, N99D, R100Q, Y105D
VL: B14 VL with A25T, S30G, I48L, A50K, L89Q, H90Q, L92M
notes: as for B1

FACS Geomean: 9550
B17: 191G1 (antibody, V domains shown)
VH: B14 VH with N99D
VL: B14 VL with L89Q
notes: as for B1

FACS Geomean: 24200
B18: 191G10 (antibody, V domains shown)
VH: B14 VH with E58K, H59N, N99D, R100Q, Y105D
VL: B14 VL with A25T, S30G, N31K, I48L, A50K, A51V, L89Q, H90Q, L92M
notes: as for B1

FACS Geomean: 26000
B19: 198G3 (antibody, V domains shown)
VH: B14 VH with R19K, S31T, S56T, E58K, H59N, Y80C, N99D, R100Q, Y105D
VL: B14 VL with T5A, A25T, S30G, N31K, I48L, A50K, S56G, L89Q, H90Q, L92M
notes: as for B1
